Data as given in doi:10.1101/2023.01.23.525297.
Like-named read-outs stand apart in the source and are kept apart here.

Key:
[1] = molecular target: zamilon vitis Zav_19 (zamilon vitis virophage)
[2] = molecular target: zamilon vitis Zav_19 (zamilon vitis virophage); experiment: crystal structure
[3] = molecular target: noumeavirus NMV_189 (noumeavirus)
[4] = molecular target: noumeavirus NMV_189 (noumeavirus); experiment: crystal structure

zamilon vitis Zav_19 (natural protein) was tested, and the stoichiometry N [1] was 3 and the stoichiometry N [2] was 3.

noumeavirus NMV_189 (natural protein) showed a stoichiometry N [3] of 3 and a stoichiometry N [4] of 3.
